Reference: the supplement of paper PMC9112550, “Optimization of the antimicrobial peptide Bac7 by deep mutational scanning” (BMC Biology, 2022)

Test system: Escherichia coli TOP10
Assay: shrunken log2 fold change of peptide-encoding DNA abundance (4.5 h post-induction vs induction); higher = less antimicrobial activity (less host growth inhibition)
Details: time post-induction: 4.5 h; library: site-saturation at positions 5, 18, 19, 20
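Further: peptides expressed intracellularly from a pBAD plasmid library in pooled LB shake-flask culture, induced with 0.3% L-arabinose, DNA abundance read by NGS, three biological replicates, DESeq2 with apeglm shrinkage.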

Row | Sequence | shrunken log2 fold change
1 | RRIRVRPPRLPRPRPRPLMRPRP | 0.515
2 | RRIRVRPPRLPRPRPRPDKCPRP | -0.0495
3 | RRIRTRPPRLPRPRPRPACAPRP | 0.441
4 | RRIRKRPPRLPRPRPRPMTMPRP | -0.00185
5 | RRIRNRPPRLPRPRPRPAWCPRP | 0.0129
6 | RRIRRRPPRLPRPRPRPKDRPRP | 0.09
7 | RRIRNRPPRLPRPRPRPYLTPRP | -0.332
8 | RRIRVRPPRLPRPRPRPKWEPRP | 0.00343
9 | RRIRTRPPRLPRPRPRPTKSPRP | 0.0353
10 | RRIRARPPRLPRPRPRPAHSPRP | 0.469
11 | RRIRRRPPRLPRPRPRPPPGPRP | 1.05
12 | RRIRGRPPRLPRPRPRPEVSPRP | 0.372
13 | RRIRMRPPRLPRPRPRPQRPPRP | 0.389
14 | RRIRWRPPRLPRPRPRPYSAPRP | -0.147
15 | RRIRLRPPRLPRPRPRPWYDPRP | -0.309
16 | RRIRGRPPRLPRPRPRPWVMPRP | 0.0476
17 | RRIRKRPPRLPRPRPRPGGIPRP | 0.569
18 | RRIRNRPPRLPRPRPRPKKNPRP | -0.0707
19 | RRIRLRPPRLPRPRPRPLPTPRP | 0.293
20 | RRIRSRPPRLPRPRPRPMPDPRP | 0.235
21 | RRIRCRPPRLPRPRPRPSQYPRP | -0.471
22 | RRIRSRPPRLPRPRPRPSAQPRP | 0.198
23 | RRIRSRPPRLPRPRPRPQNAPRP | -0.427
24 | RRIRIRPPRLPRPRPRPWAAPRP | 0.00251
25 | RRIRVRPPRLPRPRPRPRTGPRP | -0.0024

Row | Sequence | shrunken log2 fold change
26 | RRIRGRPPRLPRPRPRPPESPRP | 0.873
27 | RRIRARPPRLPRPRPRPSTMPRP | -0.237
28 | RRIRWRPPRLPRPRPRPTLNPRP | 0.139
29 | RRIRLRPPRLPRPRPRPKNKPRP | -0.291
30 | RRIRGRPPRLPRPRPRPILSPRP | 0.516
31 | RRIRYRPPRLPRPRPRPRLHPRP | -0.415
32 | RRIRKRPPRLPRPRPRPGMGPRP | 0.606
33 | RRIRYRPPRLPRPRPRPMHKPRP | -0.454
34 | RRIRYRPPRLPRPRPRPKTVPRP | -1.07
35 | RRIRTRPPRLPRPRPRPYATPRP | -0.178
36 | RRIRDRPPRLPRPRPRPEALPRP | 1.21
37 | RRIRGRPPRLPRPRPRPQVIPRP | -0.0421
38 | RRIRARPPRLPRPRPRPTEEPRP | -0.082
39 | RRIRSRPPRLPRPRPRPVRTPRP | -0.0647
40 | RRIRLRPPRLPRPRPRPFMYPRP | -1.5
41 | RRIRVRPPRLPRPRPRPDIYPRP | -0.131
42 | RRIRRRPPRLPRPRPRPSVLPRP | -0.0526
43 | RRIRIRPPRLPRPRPRPYDSPRP | -0.423
44 | RRIRNRPPRLPRPRPRPFVFPRP | -0.0679
45 | RRIRYRPPRLPRPRPRPMCTPRP | 0.00658
46 | RRIRWRPPRLPRPRPRPQSMPRP | 0.0679
47 | RRIRFRPPRLPRPRPRPIPSPRP | -0.0572
48 | RRIRERPPRLPRPRPRPKNCPRP | -0.0945
49 | RRIRTRPPRLPRPRPRPCRPPRP | -0.415
50 | RRIRSRPPRLPRPRPRPCDSPRP | -0.207

Row | Sequence | shrunken log2 fold change
51 | RRIRNRPPRLPRPRPRPWVTPRP | -0.0711
52 | RRIRGRPPRLPRPRPRPRNNPRP | 0.346
53 | RRIRHRPPRLPRPRPRPWQLPRP | -0.016
54 | RRIRHRPPRLPRPRPRPYMLPRP | -1.66
55 | RRIRRRPPRLPRPRPRPISPPRP | -0.00237
56 | RRIRSRPPRLPRPRPRPQNWPRP | 0.269
57 | RRIRQRPPRLPRPRPRPQGHPRP | -0.017
58 | RRIRWRPPRLPRPRPRPFFPPRP | -0.0359
59 | RRIRKRPPRLPRPRPRPKLIPRP | 0.0851
60 | RRIRSRPPRLPRPRPRPWSTPRP | -0.696
61 | RRIRPRPPRLPRPRPRPHPNPRP | 0.00254
62 | RRIRSRPPRLPRPRPRPEKQPRP | 0.1
63 | RRIRPRPPRLPRPRPRPPIAPRP | 0.27
64 | RRIRWRPPRLPRPRPRPTDGPRP | 0.32
65 | RRIRERPPRLPRPRPRPDFPPRP | 0.00147
66 | RRIRMRPPRLPRPRPRPDSTPRP | 1.09
67 | RRIRDRPPRLPRPRPRPCQAPRP | -0.0133
68 | RRIRNRPPRLPRPRPRPCGQPRP | 0.0151
69 | RRIRFRPPRLPRPRPRPESDPRP | 0.17
70 | RRIRWRPPRLPRPRPRPIANPRP | 0.00334
71 | RRIRWRPPRLPRPRPRPFCSPRP | -0.0764
72 | RRIRPRPPRLPRPRPRPKWQPRP | 0.225
73 | RRIRMRPPRLPRPRPRPGPDPRP | 0.768
74 | RRIRNRPPRLPRPRPRPPEWPRP | -0.188
75 | RRIRWRPPRLPRPRPRPTYCPRP | -0.126

Row | Sequence | shrunken log2 fold change
76 | RRIRQRPPRLPRPRPRPTMCPRP | -0.0814
77 | RRIRYRPPRLPRPRPRPMQSPRP | 2.85
78 | RRIRQRPPRLPRPRPRPNVFPRP | -0.14
79 | RRIRYRPPRLPRPRPRPGAAPRP | 0.176
80 | RRIRARPPRLPRPRPRPDPFPRP | 0.0855
81 | RRIRARPPRLPRPRPRPTRMPRP | 0.865
82 | RRIRFRPPRLPRPRPRPHQVPRP | -0.088
83 | RRIRTRPPRLPRPRPRPRPDPRP | 1.44
84 | RRIRLRPPRLPRPRPRPKIFPRP | -0.0395
85 | RRIRKRPPRLPRPRPRPYFKPRP | -0.382
86 | RRIRFRPPRLPRPRPRPDHNPRP | -0.911
87 | RRIRKRPPRLPRPRPRPCINPRP | -0.162
88 | RRIRNRPPRLPRPRPRPHVIPRP | -0.205
89 | RRIRCRPPRLPRPRPRPHNDPRP | -0.889
90 | RRIRWRPPRLPRPRPRPPQQPRP | 0.163
91 | RRIRGRPPRLPRPRPRPNDEPRP | 0.482
92 | RRIRQRPPRLPRPRPRPEKWPRP | -0.191
93 | RRIRFRPPRLPRPRPRPHIVPRP | -0.0839
94 | RRIRKRPPRLPRPRPRPRKLPRP | 0.0707
95 | RRIRSRPPRLPRPRPRPRVHPRP | 0.109
96 | RRIRNRPPRLPRPRPRPKCDPRP | -0.471
97 | RRIRIRPPRLPRPRPRPNIHPRP | -0.936
98 | RRIRIRPPRLPRPRPRPCSMPRP | -0.00947
99 | RRIRQRPPRLPRPRPRPWWHPRP | 0.00797
100 | RRIRARPPRLPRPRPRPATSPRP | 0.461

Row | Sequence | shrunken log2 fold change
101 | RRIRTRPPRLPRPRPRPSRVPRP | 0.526
102 | RRIRCRPPRLPRPRPRPEVGPRP | 0.555
103 | RRIRHRPPRLPRPRPRPAFSPRP | -0.0483
104 | RRIRLRPPRLPRPRPRPAWDPRP | 0.0108
105 | RRIRSRPPRLPRPRPRPKMIPRP | -0.292
106 | RRIRWRPPRLPRPRPRPNVPPRP | -0.144
107 | RRIRWRPPRLPRPRPRPVYPPRP | -0.104
108 | RRIRHRPPRLPRPRPRPFKYPRP | -0.115
109 | RRIRIRPPRLPRPRPRPDSTPRP | 0.00478
110 | RRIRNRPPRLPRPRPRPAWWPRP | 0.293
111 | RRIRARPPRLPRPRPRPKDMPRP | 0.263
112 | RRIRCRPPRLPRPRPRPEEYPRP | -0.065
113 | RRIRCRPPRLPRPRPRPKGGPRP | 0.094
114 | RRIRCRPPRLPRPRPRPGMMPRP | -0.389
115 | RRIRMRPPRLPRPRPRPVIDPRP | 0.0403
116 | RRIRPRPPRLPRPRPRPRNFPRP | 0.192
117 | RRIRLRPPRLPRPRPRPGTFPRP | 0.0118
118 | RRIRQRPPRLPRPRPRPTFWPRP | 2.04
119 | RRIRPRPPRLPRPRPRPNVDPRP | -0.0229
120 | RRIRLRPPRLPRPRPRPVWFPRP | 0.00279
121 | RRIRNRPPRLPRPRPRPSERPRP | -0.016
122 | RRIRDRPPRLPRPRPRPDDHPRP | 0.023
123 | RRIRQRPPRLPRPRPRPCWGPRP | 0.0281
124 | RRIRSRPPRLPRPRPRPCMWPRP | 0.0267
125 | RRIRFRPPRLPRPRPRPVKCPRP | -0.0573

Row | Sequence | shrunken log2 fold change
126 | RRIRMRPPRLPRPRPRPEQLPRP | 1.94
127 | RRIRVRPPRLPRPRPRPTKKPRP | -0.0633
128 | RRIRVRPPRLPRPRPRPWIAPRP | 0.201
129 | RRIRDRPPRLPRPRPRPPRGPRP | 1.31
130 | RRIRGRPPRLPRPRPRPRISPRP | 0.353
131 | RRIRVRPPRLPRPRPRPENVPRP | -0.0136
132 | RRIRLRPPRLPRPRPRPSTAPRP | -1.05
133 | RRIRIRPPRLPRPRPRPIMDPRP | -0.364
134 | RRIRVRPPRLPRPRPRPLRWPRP | 0.63
135 | RRIRKRPPRLPRPRPRPNWCPRP | -0.0436
136 | RRIRQRPPRLPRPRPRPYGGPRP | -0.29
137 | RRIRTRPPRLPRPRPRPFLNPRP | -0.183
138 | RRIRCRPPRLPRPRPRPWQLPRP | -0.263
139 | RRIRKRPPRLPRPRPRPPILPRP | 0.0292
140 | RRIRARPPRLPRPRPRPTMTPRP | 0.9
141 | RRIRFRPPRLPRPRPRPVPRPRP | 0.384
142 | RRIRIRPPRLPRPRPRPFQVPRP | 0.0102
143 | RRIRSRPPRLPRPRPRPPREPRP | 0.622
144 | RRIRERPPRLPRPRPRPDFNPRP | -0.175
145 | RRIRQRPPRLPRPRPRPVIVPRP | -0.0674
146 | RRIRARPPRLPRPRPRPNHGPRP | -0.0204
147 | RRIRSRPPRLPRPRPRPANYPRP | -0.43
148 | RRIRMRPPRLPRPRPRPCDLPRP | 0.041
149 | RRIRKRPPRLPRPRPRPMWIPRP | -0.0247
150 | RRIRHRPPRLPRPRPRPAHLPRP | 0.0167
